Measurements: patent publication US9618524B2, “Method, composition, isolation and identification of a plaque particle and related biomarker” (Plaxgen Inc., priority 2012, dated 2017)

B1: Alpha-1-acid glycoprotein 2 (protein)
chain: QIPLCANLVPVPITNATLDRITGKWFYIASAFRNEEYNKSVQEIQATFFYFTPNKTEDTIFLREYQTRQNQCFYNSSYLNVQRENGTVSRYEGGREHVAHLLFLRDTKTLMFGSYLDDEKNWGLSFYADKPETTKEQLGEFYEALDCLCIPRSDVMYTDWKKDKCEPLEKQHEKERKQEEGES
B2: Protein AMBP (protein)
chain: GPVPTPPDNIQVQENFNISRIYGKWYNLAIGSTCPWLKKIMDRMTVSTLVLGEGATEAEISMTSTRWRKGVCEETSGAYEKTDTDGKFLYHKSKWNITMESYVVHTNYDEYAIFLTKKFSRHHGPTITAKLYGRAPQLRETLLQDFRVVAQGVGIPEDSIFTMADRGECVPGEQEPEPILIPRVRRAVLPQEEEGSGGGQLVTEVTKKEDSCQLGYSAGPCMGMTSRYFYNGTSMACETFQYGGCMGNGNNFVTEKECLQTCRTVAACNLPIVRGPCRAFIQLWAFDAVKGKCVLFPYGGCQGNGNKFYSEKECREYCGVPGDGDEELLRFSN
B3: Alpha-2-antiplasmin (protein)
chain: NQEQVSPLTLLKLGNQEPGGQTALKSPPGVCSRDPTPEQTHRLARAMMAFTADLFSLVAQTSTCPNLILSPLSVALALSHLALGAQNHTLQRLQQVLHAGSGPCLPHLLSRLCQDLGPGAFRLAARMYLQKGFPIKEDFLEQSEQLFGAKPVSLTGKQEDDLANINQWVKEATEGKIQEFLSGLPEDTVLLLLNAIHFQGFWRNKFDPSLTQRDSFHLDEQFTVPVEMMQARTYPLRWFLLEQPEIQVAHFPFKNNMSFVVLVPTHFEWNVSQVLANLSWDTLHPPLVWERPTKVRLPKLYLKHQMDLVATLSQLGLQELFQAPDLRGISEQSLVVSGVQHQSTLELSEVGVEAAAATSIAMSRMSLSSFSVNRPFLFFIFEDTTGLPLFVGSVRNPNPSAPRELKEQQDSPGNKDFLQSLKGFPRGDKLFGPDLKLVPPMEEDYPQFGSPK
B4: Zinc-alpha-2-glycoprotein (protein)
chain: QENQDGRYSLTYIYTGLSKHVEDVPAFQALGSLNDLQFFRYNSKDRKSQPMGLWRQVEGMEDWKQDSQLQKAREDIFMETLKDIVEYYNDSNGSHVLQGRFGCEIENNRSSGAFWKYYYDGKDYIEFNKEIPAWVPFDPAAQITKQKWEAEPVYVQRAKAYLEEECPATLRKYLKYSKNILDRQDPPSVVVTSHQAPGEKKKLKCLAYDFYPGKIDVHWTRAGEVQEPELRGDVLHNGNGTYQSWVVVAVPPQDTAPYSCHVQHSSLAQPLVVPWEAS

Tests used:
Test in all cases: Mass spectroscopy proteomics, semi-quantitative binding affinity of serum proteins (plaqueproteome, Table 2)
Conditions in all cases: higher number = stronger affinity
[1] = biological target: T1, Abeta-42 plaque particles (Homo sapiens, UniProt P05067)
T1 construct: Abeta 1-42
Description: Next to isolate serum derived Abeta-42 plaque particles, the plasma or serum samples obtained from AD subjects were first centrifuged at 5,000 rpm for 5 min and the supernatants were transferred to new centrifuge tubes. Next, the supernatants were diluted in PBS to make 50% of the serum and plasma samples and used for incubation with Abeta-42 plaque oligomers/aggregates. Each assay was performed in 1 mL reaction (800 μL of 50% plasma or serum) and 200 μL (30 μg) of the Abeta-42 aggregates and the mixtures were incubated at 37° C. for 1 hr. To the mixture Thioflavin S dye (120 μg) was added and the sample was incubated for additional 30 min at 37° C. After the incubation, the mixture was directly used for sample acquisition using flow cytometer (FACS ARIA II, BD Biosciences, San Jose, Calif.). After initial detection of Abeta-42 plaque particles in the acquisition blot, gates were drawn in fluorescent dot blot to separately sort and isolate fluorescently labeled Abeta-42 particles.
(§1) For preparing trypsin digested peptide sequences, the isolated plaque particles were centrifuged at 10000 rpm for 5 min and the pellet containing plaque particles was resuspended in 100 μl PBS buffer. Stock solutions of digestion buffer (Ammonium Biocarbonate 50 mM), reducing buffer (DDT 100 mM) and alkylation buffer (lodoaceamide 100 mM) were prepared and stored at −20° C. for up to two months. For trypsin digestion, 100 μl of each plaque particles (2000 of Abeta-42, cholesterol, Tau and alpha-synuclein) were precipitated using cold acetone −80° C. by adding 4X's the volume. The samples were placed on dry ice for 10 min with intermittent vortex. Next, the samples were centrifuged at 4° C. at 10000 G for 10 min. Top layer of acetone was carefully removed from the tube with care not to disturb the plaque particles pellet. The samples were speed-vac for 10 min to ensure all acetone has been boiled away. The plaque particles pellet were reconstituted with 15 μl 8M Urea 100 mM Ammonium bicarbonate stock and 20 μl protease max solution. The protease max solution (Promega, Madison, Wis.) was prepared from stock by adding 60 μl 50 mM Ammonium bicarbonate and used for 3 solution digests (20 μl each). […] The tubes were incubated at 55° C. for 30 minutes. The tubes were then removed and brought to the room temperature followed by addition of 3.2 μl of 1M acrylamide and incubated at room temperature for 30 minutes. To the sample, 63 μL of 50 mM Ammonium bicarbonate was added for a final volume of 98 μl and 2 μl of trypsin (10 μg, Trypsin/Lys C Mix). After mixing the solution with pipet the samples were incubated at 37° C. overnight. After the overnight digest, the tryptic digest were quenched and acidified by adding 10 μl of 50% formic acid/water stock dilution. The samples were centrifuged at 10000 G for 2 minutes and purified using stage tip and used for MS/Mass analysis.
(§2) All MS/MS samples were analyzed using Sequest (Thermo Fisher Scientific, San Jose, Calif., USA; version 1.0). Sequest was set up to search the SUMS_uniprot_Human database (35847 entries) assuming the digestion enzyme strict trypsin. Sequest was searched with a fragment ion mass tolerance of 1.00 Da and a parent ion tolerance of 20 PPM. Propionamide of cysteine was specified in Sequest as a fixed modification. Oxidation of methionine and phospho of serine, threonine and tyrosine were specified in Sequest as variable modifications.
Scaffold (version Scaffold_4.2.1, Proteome Software Inc., Portland, Oreg.) was used to validate MS/MS based peptide and protein identifications. […] Protein probabilities were assigned by the Protein Prophet algorithm (Nesvizhskii, Al et al 2003). […] Proteins sharing significant peptide evidence were grouped into clusters. Proteins were annotated with GO terms from NCBI (downloaded Jan. 17, 2014).

[2] = biological target: T2, alpha-synuclein plaque particles (Homo sapiens, UniProt P37840)
T2 construct: 140 amino acids polypeptide
Description: To prepare oligomers/aggregates of human alpha-synuclein (140 amino acids polypeptide), 1 mg of the recombinant alpha-synuclein protein was suspended in 1 mL of PBS and the sample was incubated at 37° C. for 2 hrs. After incubation, all the samples were centrifuged for 5 min. at 5000 rpm to remove precipitate, if any, and the supernatant containing oligomers/aggregates were used in vitro plaque particles formation assay. For detecting alpha-synuclein plaque particles Thioflavin S (Ex/Em=430 nm/550 nm) amyloid binding fluorescent dye (10 μg) was used.
Similarly, to isolate alpha-synuclein plaque particles, diluted plasma or serum samples obtained from AD subjects were used for incubation with alpha-synuclein plaque oligomers/aggregates. Each assay was performed in 1 mL reaction (800 μL of 50% plasma or serum) and 200 μL (30 μg) of the alpha-synuclein aggregates and the mixtures were incubated at 37° C. for 1 hr. To the mixture Thioflavin S dye (120 μg) was added and the sample was incubated for additional 30 min at 37° C. After the incubation, the mixture was directly used for sample acquisition using flow cytometer (FACS ARIA II, BD Biosciences, San Jose, Calif.). After initial detection of alpha-synuclein plaque particles, gates were drawn in the acquisition blot to separately sort and isolate fluorescently labeled alpha-synuclein particles.
as §1, §2
Scaffold (version Scaffold_4.2.1, Proteome Software Inc., Portland, Oreg.) was used to validate MS/MS based peptide and protein identifications.

[3] = system: Low density cholesterol (Chl small) plaque particles; set-up: species or system human
Description: (§3) The goal was to isolate plaque particles synthesized in the bio-fluids in a relatively pure form to enable their subsequent use for identification of components that contribute to the plaque formation. In order to isolate cholesterol plaque particles, the plasma or serum samples obtained from atherosclerotic subjects were first centrifuged at 5,000 rpm for 5 min and the supernatants were transferred to new centrifuge tubes. Next, the supernatants were diluted in PBS to make 50% of the serum and used for incubation with cholesterol oligomers/aggregates. Each assay was performed in 1 mL reaction (800 μL of 50% plasma or serum) and 200 μL (30 μg) of the Cholesterol aggregates and the mixtures were incubated at 37° C. for 1 hr After the incubation, the mixture was directly used for sample acquisition using flow cytometer (FACS ARIA II, BD Biosciences, San Jose, Calif.). […] In order to isolate these fractions, three sets of gates were drawn in the acquisition blot to separately sort and isolate High density or high complex cholesterol particles, Low density or low complex cholesterol particles and both High and low density cholesterol particles together.
as §1, §2
(§4) Scaffold (version Scaffold_4.2.1, Proteome Software Inc., Portland, Oreg.) was used to validate MS/MS based peptide and protein identifications. […] Protein probabilities were assigned by the Protein Prophet algorithm (Nesvizhskii, Al et al 2003).

[4] = system: High Density cholesterol (Chl Large) plaque particles; set-up: species or system human
Description: as §3, §1, §2, §4

[5] = system: Tau plaque particles; set-up: species or system human
Description: For Tau-74 (74-102) (Exon 3/Insert 2 domain) preparation, 1 mg of Tau-74 was suspended in 1 mL of PBS and the sample was incubated at 37° C. for 2 hrs. Similarly for preparing Tau-275 (275-305) (Repeat 2 domain) 1 mg of the peptide was suspended in 1 mL of PBS and the sample was incubated at 37° C. for 2 hrs. After incubation, all the samples were centrifuged for 5 min. at 5000 rpm to remove precipitate, if any, and the supernatant containing oligomers/aggregates were used for in vitro amyloid plaque particles formation assay. For detecting Tau plaque particles, Thioflavin S (Ex/Em=430 nm/550 nm) amyloid binding fluorescent dye (10 μg) was used in the assay.
Next, to isolate Tau plaque particles, as performed for Abeta-42 and Abeta-28 plaque particles isolation, diluted serum samples were used for incubation separately with Tau-45, Tau-74 and Tau-275 oligomers/aggregates. Each assay was performed in 1 mL reaction (800 μL of 50% plasma or serum) and 200 μL (30 μg) of each Tau aggregates and the mixtures were incubated at 37° C. for 1 hr. To the each mixture Thioflavin S dye (120 μg) was added and the sample was incubated for additional 30 min at 37° C. After the incubation, each sample was directly used for sample acquisition using flow cytometer (FACS ARIA II, BD Biosciences, San Jose, Calif.). After initial detection of Tau plaque particles, gates were drawn in the acquisition blot to separately sort and isolate fluorescently labeled Tau plaque particles.
as §1, §2

| Molecule | Semi-quantitative analysis of proteins binding to different plaque particles: Abeta-42 [1] | Semi-quantitative analysis of proteins binding to different plaque particles: Synuclein [2] | Semi-quantitative analysis of proteins binding to different plaque particles: Chl small [3] | Semi-quantitative analysis of proteins binding to different plaque particles: Chl Large [4] | Semi-quantitative analysis of proteins binding to different plaque particles: Tau [5] |
| --- | --- | --- | --- | --- | --- |
| B1 | 9 | 10 | 7 | 5 | 9 |
| B2 | 5 | 5 | 5 | 5 | 10 |
| B3 | 0 | 5 | 3 | 6 | 5 |
| B4 | 5 | 7 | 5 | 4 | 4 |
